Measurements published in patent US20090215120A1 (UNIVERSITY OF MEDICINE AND DENTISTRY OF NEW JERSEY, published 2009).

Assays:
[1] = biological target: T1, EnvZc, the cytoplasmic domain of EnvZ (histidine kinase of E. coli) (E. coli, UniProt P0AEJ4 180-450); experiment: 10% native PAGE, 4 uM of each protein, 5 min at room temperature
T1 construct: domain: cytoplasmic domain of EnvZ; Purified EnvZc
T1 sequence: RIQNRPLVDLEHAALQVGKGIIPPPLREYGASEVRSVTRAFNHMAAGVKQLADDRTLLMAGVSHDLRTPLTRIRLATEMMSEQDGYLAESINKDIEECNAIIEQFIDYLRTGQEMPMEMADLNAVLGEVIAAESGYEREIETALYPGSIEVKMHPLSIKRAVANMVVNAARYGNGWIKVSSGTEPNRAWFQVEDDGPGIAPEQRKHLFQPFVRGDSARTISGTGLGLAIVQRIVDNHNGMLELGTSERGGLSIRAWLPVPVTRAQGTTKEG

[2] = biological target: T2, OmpR, transcription factor (response regulator) of E. coli, P0AA16
T2 chain: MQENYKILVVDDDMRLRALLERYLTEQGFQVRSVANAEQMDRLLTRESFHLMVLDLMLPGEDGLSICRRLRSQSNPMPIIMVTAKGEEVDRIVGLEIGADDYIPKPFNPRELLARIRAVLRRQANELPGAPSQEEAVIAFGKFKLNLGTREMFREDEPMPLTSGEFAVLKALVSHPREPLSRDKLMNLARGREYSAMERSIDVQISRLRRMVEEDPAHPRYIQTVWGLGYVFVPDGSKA

[3] = biological target: PrS2-OmpR (OmpR fused to two tandem repeats of the N-terminal domain, residues 1-92, of protein S of Myxococcus xanthus), P02966
[4] = biological target: T3, phosphorylated OmpR (OmpR-P), P0AA16
T3 chain: T2 chain

[5] = biological target: phosphorylated PrS2-OmpR (PrS2-OmpR-P)

Sequence of PrS2-OmpR (OmpR fused to two tandem repeats of the N-terminal domain, residues 1-92, of protein S of Myxococcus xanthus), P02966 (P02966 whole entry, looked up, the tested form may be a part): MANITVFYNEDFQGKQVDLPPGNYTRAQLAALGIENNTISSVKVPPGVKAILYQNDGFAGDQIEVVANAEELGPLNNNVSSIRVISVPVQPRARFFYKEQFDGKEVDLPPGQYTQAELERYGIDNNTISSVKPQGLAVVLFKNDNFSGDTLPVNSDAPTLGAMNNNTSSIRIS

B1: OmpR, transcription factor (response regulator) of E. coli (other)
chain: T2 chain
notes: Purified wild-type OmpR; also called wild-type OmpR; non-tagged OmpR
- binding result [1]: binds

B2: phosphorylated EnvZc (EnvZc-P), 32P-labelled (protein)
chain: T1 sequence
- phosphotransfer from 32P-labelled EnvZc-P to OmpR (SDS-PAGE, autoradiography) [2]: the phosphoryl group on EnvZ was instantly transferred to OmpR and this reaction was completed in 120 sec
- phosphotransfer from 32P-labelled EnvZc-P to PrS2-OmpR (SDS-PAGE, autoradiography) [3]: EnvZc-P was able to phosphorylate PrS2-OmpR and the result was almost identical to the non-tagged OmpR

B3: EnvZc, the cytoplasmic domain of EnvZ (histidine kinase of E. coli) (protein)
chain: T1 sequence
- dephosphorylation of OmpR-P by EnvZc upon addition of ADP (SDS-PAGE, autoradiography) [4]: OmpR-P was quickly dephosphorylated and Pi was released
- dephosphorylation of PrS2-OmpR-P by EnvZc upon addition of ADP (SDS-PAGE, autoradiography) [5]: Although in case of PrS2-OmpR, this reaction was slowed by PrS2 tag, phosphorylated PTS2-OmpR was dephosphorylated by EnvZc
